Reference: the supplement of paper PMC9170038

test system: K4 kissing-loop RNA reporter; assay: apparent KD of K4 kissing-loop reporter; higher = weaker reporter binding; details: Eterna round: R107; input ligand: arginine 13.2 mM
Method: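 RNA-MaP round R107: designed RNA switches with theophylline, tryptophan, arginine or FMN aptamers are transcribed on-chip within common flanks. They are titrated with a labelled K4 kissing-loop RNA reporter in RNA-MaP buffer (100 mM Tris pH 7.5, 80 mM KCl, 4 mM MgCl2), without ligand or with the indicated ligand. Median apparent KD per design.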
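Further: bound reporter read as fluorescence of individual clusters on recovered sequencing chips by microscopy, with normalized cluster intensities fitted with a binding model.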

Going from “UCCAUGCGCGCACGGUACUUGCCCGCAUAUCGAGGACCGGUACGGCCGCCACUCGUGCCAGUGAUGUUGGCCGGAGAGCCUUAUG [theeternabot_sameState_KL_Trp_A_22]” to “UGACAUUGCUCAGAUACCAGACUUGAGGAUCACCCAGGUGCCAAAUAAACGUACAUAAAAGUCCCUUGGCAGCUGAGCAAUGUCU [TheoBX 11]”, the “apparent KD of K4 kissing-loop reporter” value falls from 0.349 µM to 0.024 µM (15-fold).

Going from “CAUGUGUCUGGAAGGAGCGCGGGUUGGUUAAACACUGUCGCGGGCCAGUGAUGUUGGAAUCCGCAGGUAGGUCGCCAGCCACUUG [Araton]” to “AAGAGGACCAACAUCACUAGUCCUCGAAUACGAGGACCGGUACGGCCGCCACUCGAUAACUUGCAGUGAUGUUGCAAGUAAGAAU [(T)''-(K)'-(T)'-(T1)-(T2)-(K1)-(K2)_Design3]”, the “apparent KD of K4 kissing-loop reporter” value falls from 0.476 µM to 0.253 µM (1.9-fold).

“CCUAUCUCAUACGAUACCAGUCUAUUAAAACGAGUGAUGUUCGAAAAUUUGCCAUAUAAUGACCCUUGGCAGCGUAUGGGAUAGG [Ex Theophylline B K4 8]” and “AGUGGACGUGUCCGGAGUGAUGUUCCGGAUACCAGACACGAAAGUGUCCCUUGGCAGCAGGAGUGAUGUUCCGGCGUUCACUAAA [Omei KL Theo A Exc B v3]” are within 1.5-fold of each other in “apparent KD of K4 kissing-loop reporter” value: 0.185 µM for the first, 0.223 µM for the second.

Going from “UAAUGCAUGACGGCCGCCACUAGUACUGGAGUGAUGUUGUGGUACGGCGGCAAUAUAGGGUGGACUAGGACCGGGUCAUGCAUAU [KL-XTryp-B12 #analogue]” to “UGUCAUUGGUCGGCCGCCACUGGACCGGGUAUAAUCCCAGUGAUGUUGGUAAAAUACGGCCGCCACAGGACCGGGACCGAUGACU [TrypBS 15 #DoubleAptamer #SwitchBubble #K4Middle]”, the “apparent KD of K4 kissing-loop reporter” value falls from 0.336 µM to 0.208 µM (1.6-fold).

Going from “AAUAAAAUCACGGCCGCCACUGAUAUCCAUAUUAGGAGUGAUGUUCCUUUGACUAUAUAAUUUUACAGGACCGGGUGAAUAUUUA [JR_Nu_SSTryptoB_Sub027]” to “CCCAAGGGCGAACCGGUAUGAUCACCGGAUACCAGAGGCGAAAGCCUCCCUUGGCAGCCGGUUGUAGUGAUGUUACACUGGUUCU”, the “apparent KD of K4 kissing-loop reporter” value falls from 0.143 µM to 0.0746 µM (1.9-fold).

“GUGAAGGAGCUGCAGUGAUGUUGCAGAGACUAGGAUAUCAGGAAACUGAGAAGGAGUCAACUCCUUCACCUAGACUGCAACAUAA [[F]''-[K1]-[K2]-[F1]-[F2]-[F2]'-[F1]'-[K]'_Design3]” and “AAACAUUGGUCUGAUACCAGCUUGAUCGGAAACGAUCUGCUGGAGUGAUGUUCCAAGUAAAGCCCUUGGCAGCAGACCGAUGAAA [MAT - Same State Theophlline B - Mod of Eli - D16]” are within 1.5-fold of each other in “apparent KD of K4 kissing-loop reporter” value: 0.0697 µM for the first, 0.0696 µM for the second.

“AGAUUCGGCACGGCCGCCACUUCCGGUGGCUGGUGUCAUGGUGCGCGUGAGUGAUGUUUAUGUGGGAGGACCGGGUGUUGAGUCU [whbob_Ex_Tryp_B_w43]” and “CCAUUCAUUUACGAUACCAGUCUAAUAUAUUUGAUCAAAACCCUCGCCGAGUGAUGUUCGGACCCUUGGCAGCGUCUGGGACAGG [eesetmullin]” are within 1.5-fold of each other in “apparent KD of K4 kissing-loop reporter” value: 0.411 µM for the first, 0.325 µM for the second.

First: UACUAUAGUGAUGUUAUAGAUAAACCAGAUACCAGUGUAACAUAACACCCUUGGCAGCUGAUGAGGGAACAUAUGAAAACAUAUG [AstroSTH-A#6newdesignED4.78]
Second: UUGAGGGAGAAUUAUAGUGAUGUUAUAAAGAAGGAUAUCCAAAGAAGGAGAAGGUCUAAGAGGGAAGGGAGGGAGGGAGGGAGGG [ExFMNA.C]
The “apparent KD of K4 kissing-loop reporter” value of the first is 1.6-fold higher: 0.209 µM for the first, 0.131 µM for the second.

Going from “GGUAGUGCUAGCGAUACCAGUCAUAUCGCUCUGGAGUGAUGUUCCGGAACGUGCGGAGAAGACCCUUGGCAGCGCUUGACUGGAA [Exclusion Theophylline B GF6]” to “ACGCGCGCGAGUGAUGUUCGGAGCGGCUGGCAGGAUAUGGAGCAAUCCAGAAGGGUCGUGGCUGCUGGUAGGAAACUACUGGCAG [#2 Exclusion - FMN A Attempt #3 (HarryS)]”, the “apparent KD of K4 kissing-loop reporter” value falls from 0.539 µM to 0.239 µM (2.3-fold).

Compared with “UGAUAGGACAGAAGGAGCGGGAGUGAUGUUCCCAAAAGGGUAAGGUGUCAAAAGACACCCUCCCAGGUAGGUCGCUGUCCUAUCU”, “GUAGCACUCGAUAGUGAUGUUAUCGAGGGCAAGGAUAUCACCUCAGUGAGAAGGUGUCCUUGAUAACUGCUACGGGAAUAUCCCA [Omei KL FMN A Exc D v8]” is 2.1-fold lower in “apparent KD of K4 kissing-loop reporter” value: 0.191 µM for the first, 0.0909 µM for the second.

First: CUUCGAUUAACAGAUACCAGUCAUACUGGAGCCUCACUCGAGUGAGUGAUGUUCACUUGAGACCCUUGGCAGCUGUUAGUCGAAG [Theo B Ex t1a]
Second: AGUGCACUGUCAGGAUAUAUACAGUGAUGUUGUGUAUGUCAGCAAGUCAAAGACUUGCUAUUUUGUAUAGAAGGGACUGUGUACA [whbob_Ex_FMNB__2th222]
The “apparent KD of K4 kissing-loop reporter” value of the first is 3-fold lower: 0.0862 µM for the first, 0.258 µM for the second.

Compared with “CCAUCGCUAUUCGAUACCAGCCAAGAGGUCUUUGGCCUCUUAUUGGAGUGAUGUUCCAUUGGCCCUUGGCAGCGAAUAGUGAUGG [Theophylline B K4 17]”, “UAUAGGGAUAGUGAUGUUAUCCCAUGUGAUACCAGUGCCAUCCAACACCCUUGGCAGCAUACGGGCAGUGAUGUUGUUCUUGGUA [Exclusion Theophylline A GF 14]” is 2.2-fold lower in “apparent KD of K4 kissing-loop reporter” value: 0.192 µM for the first, 0.0889 µM for the second.

“UGUCAUUGGUCGGCCGCCACUUGAAGGUCAAAGACCAUAGAGUGAUGUUCUAAGACGAAAGUCACGAGGACCGGGACCGAUGACU [TrypBS 4 #SwitchBubble #K4Middle]” and “UAGGAGUGAUGUUCCUUUAGCAGGUAGGAAGGAGCGCCCAUUUGGGCAGGUAGGUCGCCUACUGGCCCUAAGUUAAACCUUAGGC [KL-SSArg-A12]” are within 1.5-fold of each other in “apparent KD of K4 kissing-loop reporter” value: 0.195 µM for the first, 0.161 µM for the second.
